# Measured values taken from paper PMC10424212.
# Conditions: ubiquitination at K57
Substance,degradation_or_half_life,enzymatic_activity
ALKBH5: K57R,increases,
"ALKBH5: K57R (purified FLAG-tagged protein, in vitro demethylation assay)",,no change
